# Residue numbers refer to the chain shown, from its start. Where two headings read alike, the source gives them in different places.
# T1: human [1-305]-mouse chimeric EL (human; mouse, UniProt Q9WVG5 306-500)
# T1 construct: Heparin extract, captured or detected by an anti-C2-tag antibody; also called human-mouse chimeric EL
# T1 sequence: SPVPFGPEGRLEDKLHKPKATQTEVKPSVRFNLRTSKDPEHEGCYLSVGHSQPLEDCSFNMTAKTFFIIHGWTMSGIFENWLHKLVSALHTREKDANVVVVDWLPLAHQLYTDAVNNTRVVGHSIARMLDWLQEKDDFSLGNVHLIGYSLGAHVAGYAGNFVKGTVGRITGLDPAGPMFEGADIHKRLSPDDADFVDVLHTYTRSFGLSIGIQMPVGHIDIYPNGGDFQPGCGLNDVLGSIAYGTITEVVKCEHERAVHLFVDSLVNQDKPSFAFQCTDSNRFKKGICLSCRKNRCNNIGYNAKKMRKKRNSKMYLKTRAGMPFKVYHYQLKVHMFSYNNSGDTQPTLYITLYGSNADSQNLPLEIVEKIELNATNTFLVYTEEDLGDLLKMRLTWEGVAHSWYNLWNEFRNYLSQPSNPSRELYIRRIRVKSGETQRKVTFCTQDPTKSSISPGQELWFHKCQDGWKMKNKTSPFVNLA
# T2: mouse EL (mouse, UniProt Q9WVG5 21-500)
# T2 construct: Heparin extract
# T2 sequence (looked up): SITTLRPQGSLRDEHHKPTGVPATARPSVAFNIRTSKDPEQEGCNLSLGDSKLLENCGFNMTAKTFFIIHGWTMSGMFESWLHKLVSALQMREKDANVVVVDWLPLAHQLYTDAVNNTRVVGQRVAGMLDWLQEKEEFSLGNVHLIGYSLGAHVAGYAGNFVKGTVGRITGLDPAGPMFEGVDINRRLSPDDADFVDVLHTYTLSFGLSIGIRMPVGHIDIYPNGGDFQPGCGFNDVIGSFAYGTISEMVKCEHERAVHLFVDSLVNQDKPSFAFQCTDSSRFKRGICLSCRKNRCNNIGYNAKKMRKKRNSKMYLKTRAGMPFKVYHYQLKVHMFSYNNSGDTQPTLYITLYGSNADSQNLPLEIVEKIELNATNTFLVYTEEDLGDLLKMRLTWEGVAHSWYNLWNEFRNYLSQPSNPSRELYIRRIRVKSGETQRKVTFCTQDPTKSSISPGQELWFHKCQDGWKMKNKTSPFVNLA
# T3: human [202-500]-mouse chimeric EL (mouse; human, UniProt Q9WVG5 21-201)
# T3 construct: Heparin extract, detected by an anti-C2-tag antibody
# T3 sequence: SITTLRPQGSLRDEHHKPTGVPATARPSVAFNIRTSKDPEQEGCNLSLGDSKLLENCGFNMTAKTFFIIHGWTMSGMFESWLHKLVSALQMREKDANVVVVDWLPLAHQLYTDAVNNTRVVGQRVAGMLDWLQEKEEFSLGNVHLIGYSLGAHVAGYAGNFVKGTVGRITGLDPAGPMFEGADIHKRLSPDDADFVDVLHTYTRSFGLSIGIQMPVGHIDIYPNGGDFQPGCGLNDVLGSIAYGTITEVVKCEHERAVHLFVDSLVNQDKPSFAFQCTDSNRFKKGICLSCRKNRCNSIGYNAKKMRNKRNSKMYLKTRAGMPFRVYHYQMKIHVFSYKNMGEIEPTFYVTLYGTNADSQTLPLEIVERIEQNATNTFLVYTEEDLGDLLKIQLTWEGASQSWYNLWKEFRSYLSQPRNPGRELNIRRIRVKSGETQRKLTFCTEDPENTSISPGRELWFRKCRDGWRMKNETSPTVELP
# B1: 16F6 (antibody, V domains shown)
# VH: QVQLQQSGAELMKPGASVKISCKATGYTFSTYWIAWVKQRPGHGLEWIGEILPGSAKTKYNKKFKGKATFTADTSSNTAYMQLSSLTSEDSAVYYCAVYDYGADYWGQGTSVTVSS
# VL: DIVMTQSHKFMSTSVGDRVSITCKASQDVYTAVAWYQQKPGQSPKLLIYSASYRFTGVPDRFTGSGAGTEFTFTINSVQAEDLAVYYCQQHYSIPRTFGGGTKLEIK
# notes: mouse IgG1 raised in EL knock-out mice; not tied one by one
# B2: 16B3 (antibody, mouse IgG2a, V domains shown)
# VH: DVKLVESGGGLVQPGGSLKLSCTASGFTFSGYTMSWVRQTPEKRLELVAEISFARDRAFYPDTVKGRFTISRDNAKNTLYLQMSSLKSEDTAMYYCTRLGGRNHDYWYFDVWGTGTTVTVSS
# VL: DIVLTQSPTSLAVSPGQRATISCRASESVEYYGTSLMQWYQQKPGQRPQLLIYAASNVESGVPARFSGSGSGTDFSLNIHPVEEDDIAVYFCQQSWKVPFTFGSGTKLEIK
# notes: mouse IgG2a from hybridoma; also called 16B3 (mouse mAb)
# B3: 16E7 (antibody, mouse IgG1, V domains shown)
# VH: B2 VH with D1E, T23A, G31S, A54T, D56S, T97A, R102N, H104Y
# VL: B2 VL with P15L, Q49K, V89M
# notes: mouse IgG1 from hybridoma
# B4: 14E1 (antibody, mouse IgG1, V domains shown)
# VH: QVQLQQSGAELVKPGASVRLSCKASGYTFTKYTIHWVKQRSGQGLEWIGWFYPGSDSIKYNEKFKDKATLTADKSSRTVYMELSRLTSEDSAVYFCARHEEYTNSLAYWGQGTLVTVSA
# VL: DIQMTQTTSSLSASLGDRVTISCRASQDISNYLNWYQQQPDGTVKLLIYYTSRLHSGVPSRFSGSGSGTDYSLTISNLEQEDIATYFCQQGYTLPWTFGGGTNLEIK
# notes: mouse IgG1 from hybridoma
# B5: h16F6-S1 (antibody, V domains shown)
# VH: QVQLVQSGAEVKKPGASVKVSCKASGYTFTTYWIAWVRQAPGQGLEWMGEILPGSAKTKYNKKFKGRVTMTRDTSTSTVYMELSSLRSEDTAVYYCAVYDYGADYWGQGTTVTVSS
# VL: DIQMTQSPSSLSASVGDRVTITCKASQDVYTAVAWYQQKPGKSPKLLIYSASYRFTGVPSRFSGSGSGTDFTLTISSLQPEDFATYYCQQHYSIPRTFGGGTKVEIK
# notes: humanized
# Key:
# [1] = biological target: T1, human [1-305]-mouse chimeric EL; assay: Biacore (as for the other anti-EL antibodies)
# baboon EL [2] = biological target: T4, baboon EL (baboon); assay: Biacore (as for the other anti-EL antibodies)
# T4 construct: Heparin extract
# mouse EL [3] = biological target: T2, mouse EL; assay: Biacore (as for the other anti-EL antibodies)
# [4] = biological target: T1, human [1-305]-mouse chimeric EL; assay: ELISA: antibody captured on anti-mouse IgG-Fc plate, EL heparin extract added, detection with biotin anti-C2-tag antibody and HRP-streptavidin, A450
# baboon EL [5] = biological target: T4, baboon EL; assay: as above
# Chimeric EL [187-500] = biological target: T5, Chimeric EL [187-500] (mouse;human); assay: as above
# T5 construct: construct not described further; Used as heparin extract and detected through anti-C2-tag antibody; also called human (187-500) mouse chimera EL
# [6] = biological target: T1, human [1-305]-mouse chimeric EL; assay: cell-based or functional assay
# baboon EL [7] = biological target: T4, baboon EL; assay: cell-based or functional assay
# mouse EL [8] = biological target: T2, mouse EL; assay: cell-based or functional assay
# rabbit EL [9] = biological target: rabbit EL (rabbit); assay: cell-based or functional assay
# cynomolgus monkey EL [10] = biological target: cynomolgus monkey EL (cynomolgus monkey); assay: cell-based or functional assay
# [11] = biological target: T1, human [1-305]-mouse chimeric EL; assay: cell-based or functional assay; remark: listed apart in the source
# cynomolgus monkey EL [12] = biological target: cynomolgus monkey EL (cynomolgus monkey); assay: cell-based or functional assay; remark: listed apart in the source
# baboon EL [13] = biological target: T4, baboon EL; assay: cell-based or functional assay; remark: listed apart in the source
# [14] = biological target: human-mouse chimeric EL (construct not specified); assay: cell-based or functional assay
# rabbit EL [15] = biological target: rabbit EL (rabbit); assay: cell-based or functional assay; remark: listed apart in the source
# cynomolgus monkey EL [16] = biological target: T6, cynomolgus monkey EL (cynomolgus monkey); assay: ELISA: antibody captured on anti-mouse IgG-Fc plate, EL heparin extract added, detection with biotin anti-C2-tag antibody and HRP-streptavidin, A450
# T6 construct: Heparin extract; also called cynomolgus EL; Cynomolgus EL
# [17] = biological target: T1, human [1-305]-mouse chimeric EL; assay: as above; remark: listed apart in the source
# baboon EL [18] = biological target: T4, baboon EL; assay: as above; remark: listed apart in the source
# mouse EL [19] = biological target: T2, mouse EL; assay: as above
# [20] = biological target: T3, human [202-500]-mouse chimeric EL; assay: as above
# cynomolgus monkey EL [21] = biological target: T6, cynomolgus monkey EL; assay: Biacore; EL captured by anti-C2-tag Ab; bivalent fit
# Procedure: (§1) The binding affinities of anti-EL antibodies were measured using Biacore. […] Then, anti-EL antibodies were added and the binding affinities were calculated by bivalent fitting of BIAevaluation software.
# [22] = biological target: T1, human [1-305]-mouse chimeric EL; assay: as above
# Procedure: as §1
# baboon EL [23] = biological target: T4, baboon EL; assay: as above
# Procedure: as §1
# baboon EL [24] = biological target: T4, baboon EL; assay: cell-based or functional assay; remark: listed apart in the source
# mouse EL [25] = biological target: T2, mouse EL; assay: cell-based or functional assay; remark: listed apart in the source
# baboon EL [26] = biological target: T4, baboon EL; assay: Biacore; EL captured by anti-C2-tag Ab; bivalent fit; remark: listed apart in the source
# Procedure: (§2) The binding affinities of anti-EL antibodies were measured using Biacore. […] Then, anti-EL humanized antibodies were added and the binding affinities were calculated by bivalent fitting of BIAevaluation software.
# mouse EL [27] = biological target: T2, mouse EL; assay: as above
# Procedure: as §2
binder,measurement,setting,value
B1,Kd,[1],14 nM
same,koff,[1],0.004 s⁻¹
same,kon,[1],330000 M⁻¹ s⁻¹
same,Kd,baboon EL [2],0.42 nM
same,koff,baboon EL [2],0.0001 s⁻¹
same,kon,baboon EL [2],240000 M⁻¹ s⁻¹
same,Kd,mouse EL [3],0.68 nM
same,koff,mouse EL [3],0.00015 s⁻¹
same,kon,mouse EL [3],220000 M⁻¹ s⁻¹
same,EC50 (read off the curve),[4],~2 ng/mL
same,EC50 (read off the curve),baboon EL [5],~20 ng/mL
same,EC50 (read off the curve),Chimeric EL [187-500],~20 ng/mL
same,Neutralizing activity IC50,[6],4 nM
same,Neutralizing activity IC50,baboon EL [7],2.8 nM
same,Neutralizing activity IC50,mouse EL [8],2.5 nM
same,Neutralizing activity IC50,rabbit EL [9],2.3 nM
B2,Neutralizing activity IC50,cynomolgus monkey EL [10],1.8 nM
same,Neutralizing activity IC50,[11],1.3 nM
same,Neutralizing activity IC50,cynomolgus monkey EL [12],1.9 nM
same,Neutralizing activity IC50,baboon EL [13],3 nM
same,Neutralizing activity IC50,[14],1.3 nM
same,Neutralizing activity IC50,rabbit EL [15],6.3 nM
same,EC50 (read off the curve),cynomolgus monkey EL [16],~4 ng/mL
same,EC50 (read off the curve),[17],~3 ng/mL
same,EC50 (read off the curve),baboon EL [18],~5 ng/mL
same,binding result,mouse EL [19],no binding (tested: about 330 ng/mL)
same,EC50 (read off the curve),[20],~4 ng/mL
same,Kd,cynomolgus monkey EL [21],2.1 nM
same,koff,cynomolgus monkey EL [21],8.9e-05 s⁻¹
same,kon,cynomolgus monkey EL [21],42000 M⁻¹ s⁻¹
same,Kd,[22],3.7 nM
same,koff,[22],0.00019 s⁻¹
same,kon,[22],51000 M⁻¹ s⁻¹
same,Kd,baboon EL [23],3.2 nM
same,koff,baboon EL [23],9.8e-05 s⁻¹
same,kon,baboon EL [23],31000 M⁻¹ s⁻¹
B3,Neutralizing activity IC50,cynomolgus monkey EL [12],2.5 nM
same,Neutralizing activity IC50,baboon EL [13],2.1 nM
same,Neutralizing activity IC50,[14],1.1 nM
same,Neutralizing activity IC50,rabbit EL [15],> 40 nM
same,EC50 (read off the curve),cynomolgus monkey EL [16],~6 ng/mL
same,EC50 (read off the curve),[17],~6 ng/mL
same,EC50 (read off the curve),[20],~8 ng/mL
same,Kd,[22],1.1 nM
same,koff,[22],0.0001 s⁻¹
same,kon,[22],95000 M⁻¹ s⁻¹
same,Kd,baboon EL [23],4.7 nM
same,koff,baboon EL [23],0.00025 s⁻¹
same,kon,baboon EL [23],53000 M⁻¹ s⁻¹
B4,Neutralizing activity IC50,cynomolgus monkey EL [12],2.4 nM
same,Neutralizing activity IC50,baboon EL [13],3.3 nM
same,Neutralizing activity IC50,[14],1.4 nM
same,Neutralizing activity IC50,rabbit EL [15],5.9 nM
same,EC50 (read off the curve),cynomolgus monkey EL [16],~10 ng/mL
same,EC50 (read off the curve),[17],~7 ng/mL
same,EC50 (read off the curve),baboon EL [18],~20 ng/mL
same,EC50 (read off the curve),[20],~20 ng/mL
same,Kd,cynomolgus monkey EL [21],5.9 nM
same,koff,cynomolgus monkey EL [21],0.00069 s⁻¹
same,kon,cynomolgus monkey EL [21],120000 M⁻¹ s⁻¹
same,Kd,[22],5.4 nM
same,koff,[22],0.00023 s⁻¹
same,kon,[22],42000 M⁻¹ s⁻¹
same,Kd,baboon EL [23],5.8 nM
same,koff,baboon EL [23],0.00085 s⁻¹
same,kon,baboon EL [23],150000 M⁻¹ s⁻¹
B5,Neutralizing activity IC50,baboon EL [24],2.6 nM
same,Neutralizing activity IC50,mouse EL [25],3.1 nM
same,Kd,baboon EL [26],0.57 nM
same,koff,baboon EL [26],0.00074 s⁻¹
same,kon,baboon EL [26],1.3e+06 M⁻¹ s⁻¹
same,Kd,mouse EL [27],0.16 nM
same,koff,mouse EL [27],0.00019 s⁻¹
same,kon,mouse EL [27],1.2e+06 M⁻¹ s⁻¹

# Reference: patent US20200071424A1 (SHIONOGI, published 2020)
